The labels stand for the following.
B1: OR4K15 (parent)
chain: GUUAACGGUCAUAGGCCAUGGAAACUAGGAGCACCAUUUCGCUGCCAGUGAAGAAAUGAACAAAGAAAAUCUGGGCCAGGCAGGCAUCAAAAGAAAUAGUCUUGCGCUCAACCAGAAAGUCUGUAAUCAUUUUAAGGGUA

Variants of B1 are the subject of this data set. The data set can be described thus: self-cleavage, relative activity (ratio to wild type); higher = more cleavage; in vitro, sequencing; the parent is a self-cleaving ribozyme.
For GUUAACGGUCAUAGGCCAUGGAAACUGGGAGCACCAUUUCGCUGCCAGUGAAGAAAUGAACAAAGAAAAUCCGGGCCAGGCAGGCAUCAAAAGAAAUAGUCUUGCGCUCAACCAGAAAGUCUGUAAUCAUUUUAAGGGUA [A27G U72C], the self-cleavage was 0.38.

Regarding GUUAACGGUCAUAGGCCAUGGAAACUGGGAGCACCAUCUCGCUGCCAGUGAAGAAAUGAACAAAGAAAAUCUGGGCCAGGCAGGCAUCAAAAGAAAUAGUCUUGCGCUCAACCAGAAAGUCUGUAAUCAUUUUAAGGGUA [A27G U38C], the self-cleavage was 1.12. To GUUAACGGUCAUAGGCCAUGGAAACUGGGAGCACCAUUUCGCUGCCAGUGAAGAAAUGAACAAAGAAAAUCUGGGCCAGGCAGGCAUCAAAAGAAAUAGUCAUGCGCUCAACCAGAAAGUCUGUAAUCAUUUUAAGGGUA [A27G U102A] belongs 0.63; to GUUAACGGUCAUAGGCCAUGGAAACUGGGAGCACCAUUUCGCUGCCAGUGAAGAAAUGAACAAAGAAAAUCUGGGCCAGGCAGGCAUCAAAAGAAAUAGUCUUGCGCUCAACCAGAAAGUCUGUAAUCACUUUAAGGGUA [A27G U130C], 0.63. To GUUAACGGUCAUAGGCCAUGGAAACUGGGAGCACCAUUUCGCUGCCAGUGAAGAAAUGAACAAAGAAAAUCUGGGCCAGGCAGGCAUCAAAAGAAAUAGUCUUGCGCUCAACCAGAAAGUCUGUAAUCAUUUGAAGGGUA [A27G U133G] belongs 2.02.

As for GUUAACGGUCAUAGGCCAUGGAAACUGGGAGCACCAUUUCGCUGCCAGUGAAGAAAUGAACAAAGAAAAUCUGGGCCAGGCAGGCAUCAAAAGAAAUAGUCUCGCGCUCAACCAGAAAGUCUGUAAUCAUUUUAAGGGUA [A27G U103C], the self-cleavage came out at 0.76.

For the variant GUUAACGGUCAUAGGCCAUGGAAACUGGGAGCACCAUUCCGCUGCCAGUGAAGAAAUGAACAAAGAAAAUCUGGGCCAGGCAGGCAUCAAAAGAAAUAGUCUUGCGCUCAACCAGAAAGUCUGUAAUCAUUUUAAGGGUA [A27G U39C], the self-cleavage worked out at 1.14. With GUUAACGGUCAUAGGCCAUGGAAACUGGGAGCACCAUUACGCUGCCAGUGAAGAAAUGAACAAAGAAAAUCUGGGCCAGGCAGGCAUCAAAAGAAAUAGUCUUGCGCUCAACCAGAAAGUCUGUAAUCAUUUUAAGGGUA [A27G U39A], the self-cleavage came out at 1.42. For the variant GUUAACGGUCAUAGGCCAUGGAAACUGGGAGCACCAUUUCGCUGCCAGUGAAGAAAUGAACAAAGAAAAUCUGGGCCAGGCAGGCAUCAAAAGAAAUAGUCUUGCGCUCAACCAGAAAGUCUGUAAACAUUUUAAGGGUA [A27G U127A], the self-cleavage came out at 1.58.

Turning to GUUAACGGUCAUAGGCCAUGGAAACUGGGAGCACCAUUUCGCUGCCAGUGAAGAAAUGAACAAAGAAAAUCUGGGCCAGGCAGGCAUCAAAAGAAAUAGUCUUGCGCUCAACCAGAAAGUCUGUAACCAUUUUAAGGGUA [A27G U127C], the self-cleavage was 0.56.

As to GUUAACGGUCAUAGGCCAUGGAAACUGGGAGCACCAUUUCGCUGCCAGUGAAGAAAUGAACAAAGAAAAUCUGGGCCAGGCAGGCAUCAAAAGAAAUAGUCUUGCGCUCAACCAGAAAGUCAGUAAUCAUUUUAAGGGUA [A27G U122A], the self-cleavage was 1.47.

For GUUAACGGUCAUAGGCCAUGGAAACUGGGAGCACCAUUUCGCUGCCAGUGAAGAAAUGAACAAAGAAAAUCUGGGCCAGGCAGGCAUCAAAAGAAAUAGUCUUGCGCUCAACCAGAAAGUCCGUAAUCAUUUUAAGGGUA [A27G U122C], the self-cleavage came out at 1.45. To GUUAACGGUCAUAGGCCAUGGAAACUGGGAGCACCAUUUCGCUGCCAGUGAAGAAAUGAACAAAGAAAAUCUGGGCCAGGCAGGCAUCAAAAGAAAUAGUCUUGCGCUCAACCAGAAAGCCUGUAAUCAUUUUAAGGGUA [A27G U120C] belongs 0.68; to GUUAACGGUCAUAGGCCAUGGAAACUGGGAGCACCAUUUCGCUGCCAGUGAAGAAAUGAACAAAGAAAAUCUGGGCCAAGCAGGCAUCAAAAGAAAUAGUCUUGCGCUCAACCAGAAAGUCUGUAAUCAUUUUAAGGGUA [A27G G79A], 0.15. For GUUAACGGUCAUAGGCCAUGGAAACUGGGAGCACCAUUUCGCUGCCAGUGAAGAAAUGAACAAAGAAAAUCUGGGCCAGGCAGGCAUCAAAAGAAAUAGUCUUGCGCUCAACCAGAAAGUCUGUAAUCAUCUUAAGGGUA [A27G U131C], the self-cleavage was found to be 1.67.

With GUUAACGGUCAUAGGCCAUGGAAACUGGGAGCACCAUUUCGCUGCCAUUGAAGAAAUGAACAAAGAAAAUCUGGGCCAGGCAGGCAUCAAAAGAAAUAGUCUUGCGCUCAACCAGAAAGUCUGUAAUCAUUUUAAGGGUA [A27G G48U], the self-cleavage was determined as 0.5.

Consider GUUAACGGUCAUAGGCCAUGGAAACUGGGAGCACCAUUUCGCUGCCAGCGAAGAAAUGAACAAAGAAAAUCUGGGCCAGGCAGGCAUCAAAAGAAAUAGUCUUGCGCUCAACCAGAAAGUCUGUAAUCAUUUUAAGGGUA [A27G U49C], for which the self-cleavage is 2.01. On to GUUAACGGUCAUAGGCCAUGGAAACUGGGAGCACCAUUUCGCUGCCAGAGAAGAAAUGAACAAAGAAAAUCUGGGCCAGGCAGGCAUCAAAAGAAAUAGUCUUGCGCUCAACCAGAAAGUCUGUAAUCAUUUUAAGGGUA [A27G U49A], for which the self-cleavage was determined as 0.93. To GUUAACGGUCAUAGGCCAUGGAAACUGGGAGCACCAUUUCGCUGCCAGUGAAGAAAUGAACAAAGAAAAUCUGGGCCAGGCAGGCAACAAAAGAAAUAGUCUUGCGCUCAACCAGAAAGUCUGUAAUCAUUUUAAGGGUA [A27G U87A] belongs 1.39; to GUUAACGGUCAUAGGCCAUGGAAACUGGGAGCACCAUUUCGCUGCCAGUGAAGAAAUGAACAAAGAAAAUCUGGGCCAGGCAGGCACCAAAAGAAAUAGUCUUGCGCUCAACCAGAAAGUCUGUAAUCAUUUUAAGGGUA [A27G U87C], 1.02; to GUUAACGGUCAUAGGCCAUGGAAACUGGGAGCACCAUUUCGCUGCCAGUGAACAAAUGAACAAAGAAAAUCUGGGCCAGGCAGGCAUCAAAAGAAAUAGUCUUGCGCUCAACCAGAAAGUCUGUAAUCAUUUUAAGGGUA [A27G G53C], 1.59.

The record behind these values is the RNAGym collection of RNA variant scans (doi:10.7554/elife.90254).
